Data from US20130330346A1 (Novartis, published 2013).

T1: Human CXCR2 (human, UniProt P25025 1-360)
T1 construct: Some cell lines carry an N-terminal 3xHA tag; also called hCXCR2; huCXCR2
T1 sequence: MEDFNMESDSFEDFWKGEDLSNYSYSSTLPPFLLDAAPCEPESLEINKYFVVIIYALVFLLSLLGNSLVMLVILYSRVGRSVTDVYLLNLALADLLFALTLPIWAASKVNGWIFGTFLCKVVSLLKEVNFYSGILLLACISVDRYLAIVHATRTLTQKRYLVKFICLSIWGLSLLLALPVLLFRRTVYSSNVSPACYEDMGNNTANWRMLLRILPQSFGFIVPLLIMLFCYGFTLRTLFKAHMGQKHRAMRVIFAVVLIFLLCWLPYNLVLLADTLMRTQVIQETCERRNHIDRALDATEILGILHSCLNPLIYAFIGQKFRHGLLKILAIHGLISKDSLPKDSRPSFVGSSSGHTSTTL

T2: Cynomolgus CXCR2 (cynomolgus, UniProt Q28519 3-353 (rhesus entry))
T2 chain: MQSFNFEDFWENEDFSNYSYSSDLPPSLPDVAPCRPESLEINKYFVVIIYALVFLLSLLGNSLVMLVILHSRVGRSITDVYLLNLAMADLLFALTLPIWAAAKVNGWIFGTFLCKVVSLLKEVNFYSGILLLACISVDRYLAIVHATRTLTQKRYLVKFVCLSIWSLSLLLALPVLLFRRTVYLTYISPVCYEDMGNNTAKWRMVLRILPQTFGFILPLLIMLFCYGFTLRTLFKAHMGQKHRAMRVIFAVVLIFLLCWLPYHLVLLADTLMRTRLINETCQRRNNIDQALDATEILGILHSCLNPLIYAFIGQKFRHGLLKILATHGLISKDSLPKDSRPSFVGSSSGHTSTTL


What was measured:
Human CXCR2 [1] = target: T1, Human CXCR2; assay: FACS, periplasmic extract vs FMAT Blue Gro-α
Procedure: Periplasmic extracts (as described above) were analyzed on FACS for competition with Gro-α in binding to human CXCR2. 2×10⁵ cells were incubated with a ½ dilution of periplasmic extracts in FACS buffer (PBS+10% fetal bovine serum (Sigma, F7524)) for 30 minutes at 4° C. Then, an equal volume of 6 nM of FMAT Blue-labeled human Gro-α in FACS buffer was added and incubation was continued for another 30 minutes at 4° C. in the dark. Cells were then washed three times in FACS buffer and finally resuspended in FACS buffer. Dead cells were stained with propidium iodide (Sigma, P4170). Samples were then analyzed on a FACSarray (BD Biosciences).

Human CXCR2 [2] = target: T1, Human CXCR2; assay: cell-based or functional assay
Cynomolgus CXCR2 [3] = target: T2, Cynomolgus CXCR2; assay: cell-based or functional assay
Human CXCR2 [4] = target: T1, Human CXCR2; assay: cell-based or functional assay; remark: listed apart in the source
Human CXCR2 [5] = target: T1, Human CXCR2; assay: FACS competition vs 3 nM FMAT-Blue Gro-α
Procedure: (§1) Multivalent anti-CXCR2Nanobodies were titrated against 3 nM FMAT-Blue-labeled Gro-α in the FACS ligand competition assay on human and cynomolgus CXCR2 (Table 14). On human CXCR2, blocking potencies range between double digit nM and sub-nM whereas on cynomolgus CXCR2, they range between single and double digit nM.

Cynomolgus CXCR2 [6] = target: T2, Cynomolgus CXCR2; assay: FACS competition vs 3 nM FMAT-Blue Gro-α
Procedure: as §1

Row | Binder | FACS Gro-α competition (% inhibition) (Human CXCR2 [1]) | FLIPR % inhibition of max (Human CXCR2 [2]) | FLIPR IC50 (GRO-α induced calcium release) (Human CXCR2 [2]) | FLIPR % inhibition of max (Cynomolgus CXCR2 [3]) | FLIPR IC50 (GRO-α induced calcium release) (Cynomolgus CXCR2 [3]) | [35S]GTPγS % inhibition of max (GRO-α) (Human CXCR2 [4]) | [35S]GTPγS IC50 (GRO-α) (Human CXCR2 [4]) | % inhibition of max (Human CXCR2 [5]) | IC50 (Human CXCR2 [5]) | % inhibition of max (Cynomolgus CXCR2 [6]) | IC50 (Cynomolgus CXCR2 [6]) | [35S]GTPγS % inhibition of max (ENA-78) (Human CXCR2 [4]) | [35S]GTPγS % inhibition of max (IL-8) (Human CXCR2 [4]) | [35S]GTPγS IC50 (ENA-78) (Human CXCR2 [4]) | [35S]GTPγS IC50 (IL-8) (Human CXCR2 [4])
1 | 145D3 (VHH, Tested as periplasmic extract only; also called 145D03; not shown: C-terminal c-myc tag and His6 tag coded by the vector) VHH: EVQLVESGGGLVQAGGSLSLSCAASGLIFRLSGMAWYRQAPGRQREWVAVLTKDGTLHYADPVKGRFTISRNNAENTWYLQMNSLKPEDTAIYYCNTGRYWGQGTQVTVSS | 77.9% |  |  |  |  |  |  |  |  |  |  |  |  |  | 
2 | CXCR20025 (bispecific antibody, Biparatopic: two VHH joined by a GlySer linker; also called 163D2-35GS-127D1; not shown: C-terminal c-myc tag and His6 tag coded by pAX100) EVQLVESGGGLVQAGGSLRLSCAASGRTFSDYAMGWFRQAPGKEREFVAAITWNGGRVFYTASVKGRFTISRDNAKNTMYLQMNSLKPEDTAVYYCAADKDRRTDYLGHPVAYWGQGTQVTVSSGGGGSGGGGSGGGGSGGGGSGGGGSGGGGSGGGGSEVQLVESGGGLVQAGESLRLSCAASGSTFDFKVMGWYRQPPGKQREGVAAIRLSGNMHYAESVKGRFTISKANAKNTVYLQMNSLRPEDTAVYYCKVNIRGQDYWGQGTQVTVSS |  | 100% | 12.2 nM | 100% | 7.88 nM | 100% | 0.891 nM | 99% | 0.9 nM | 98.5% | 2.08 nM |  |  |  | 
3 | 143A5 (VHH, Tested as periplasmic extract only; also called 143A05; not shown: C-terminal c-myc tag and His6 tag coded by the vector) VHH: KVQLVESGGGLVQAGGSLRLSCAASGRAFNYYVMAWFRQAQGKEREFVAAISTRGSMTKYSDSVQGRFTISRDNAKNTVYLHMNSLKPEDTAVYYCAADPRGSSWSFSSGGYDYWGQGTQVTVSS | 72.6% |  |  |  |  |  |  |  |  |  |  |  |  |  | 
4 | CXCR20032 (bispecific antibody, Biparatopic: two VHH joined by a GlySer linker; also called 2B2-35GS-163D2; not shown: C-terminal c-myc tag and His6 tag coded by pAX100) EVQLVESGGELVQPGGSLRLSCAASGSILTINAMGWYRQAPGKQRELVVRRTRGGSTTYQDSVKGRFTISADIAKKTMYLQMNSLKPEDTAVYYCMLDDRGGVYWGQGTQVTVSSGGGGSGGGGSGGGGSGGGGSGGGGSGGGGSGGGGSEVQLVESGGGLVQAGGSLRLSCAASGRTFSDYAMGWFRQAPGKEREFVAAITWNGGRVFYTASVKGRFTISRDNAKNTMYLQMNSLKPEDTAVYYCAADKDRRTDYLGHPVAYWGQGTQVTVSS |  | 100% | 14.7 nM | 100% | 3.65 nM |  |  | 100% | 0.5 nM | 99% | 1.91 nM | 100% | 100% | 0.116 nM | 0.997 nM
5 | 145C9 (VHH, Tested as periplasmic extract only; also called 145C09; not shown: C-terminal c-myc tag and His6 tag coded by the vector) VHH: EVQLVESGGGLVQAGGSLRLSCAASGFTFDDYAIGWFRQAPGKERERVSCISGSDGSTYYADSVKGRFTISSDNAKNTVYLQMNNLKPEDTAVYYCAAYWGLTLRLWMPPHRYDYWGQGTQVTVSS | 53.5% |  |  |  |  |  |  |  |  |  |  |  |  |  | 
6 | CXCR20031 (bispecific antibody, Biparatopic: two VHH joined by a GlySer linker; also called 2B2-35GS-163E3; not shown: C-terminal c-myc tag and His6 tag coded by pAX100) EVQLVESGGELVQPGGSLRLSCAASGSILTINAMGWYRQAPGKQRELVVRRTRGGSTTYQDSVKGRFTISADIAKKTMYLQMNSLKPEDTAVYYCMLDDRGGVYWGQGTQVTVSSGGGGSGGGGSGGGGSGGGGSGGGGSGGGGSGGGGSEVQLVESGGGLVQPGGSLRLSCVASGRIFSSNAMGWFRQAPGKEREFVAAITWRSGGSAYYADSAKGRFTISRDNAKNTVYLQMNSLKPEDTAVYYCAAGGSSWLSFPPDYWGQGTQVTVSS |  | 100% | 15.2 nM | 100% | 4.26 nM |  |  | 100% | 0.49 nM | 99% | 1.98 nM | 100% | 100% | 1.38 nM | 0.84 nM
7 | CXCR20023 (bispecific antibody, Two different VHH joined by a GlySer linker; also called 163D2-35GS-163E3; not shown: C-terminal c-myc tag and His6 tag coded by pAX100) EVQLVESGGGLVQAGGSLRLSCAASGRTFSDYAMGWFRQAPGKEREFVAAITWNGGRVFYTASVKGRFTISRDNAKNTMYLQMNSLKPEDTAVYYCAADKDRRTDYLGHPVAYWGQGTQVTVSSGGGGSGGGGSGGGGSGGGGSGGGGSGGGGSGGGGSEVQLVESGGGLVQPGGSLRLSCVASGRIFSSNAMGWFRQAPGKEREFVAAITWRSGGSAYYADSAKGRFTISRDNAKNTVYLQMNSLKPEDTAVYYCAAGGSSWLSFPPDYWGQGTQVTVSS |  | 100% | 14.8 nM | 100% | 12 nM | 100% | 26.6 nM | 99% | 4.28 nM | 96% | 6.61 nM |  |  |  | 
8 | 143B3 (VHH, Tested as periplasmic extract only; also called 143B03; not shown: C-terminal c-myc tag and His6 tag coded by the vector) VHH: EVQLVESGGGLVQPGGSLRLSCAASGFTFSTYWMYWVRQAPGKGLDWVSAINAGGDSTYYADPVKGRFTISRDNNKNTLYLQMNSLKPEDTALYYCATVRGTARDLDYWGQGTQVTVSS | 70.8% |  |  |  |  |  |  |  |  |  |  |  |  |  | 
9 | CXCR20024 (VHH, Bivalent: two VHH joined by a GlySer linker; also called 163E3-35GS-163E3; not shown: C-terminal c-myc tag and His6 tag coded by pAX100) EVQLVESGGGLVQPGGSLRLSCVASGRIFSSNAMGWFRQAPGKEREFVAAITWRSGGSAYYADSAKGRFTISRDNAKNTVYLQMNSLKPEDTAVYYCAAGGSSWLSFPPDYWGQGTQVTVSSGGGGSGGGGSGGGGSGGGGSGGGGSGGGGSGGGGSEVQLVESGGGLVQPGGSLRLSCVASGRIFSSNAMGWFRQAPGKEREFVAAITWRSGGSAYYADSAKGRFTISRDNAKNTVYLQMNSLKPEDTAVYYCAAGGSSWLSFPPDYWGQGTQVTVSS |  | 100% | 26.4 nM | 100% | 11.8 nM | 100% | 30.3 nM | 99% | 5.27 nM | 95% | 5.32 nM |  |  |  | 
10 | CXCR20021 (bispecific antibody, Biparatopic: two VHH joined by a GlySer linker; also called 127D1-35GS-163E3; 127D1-163E3; not shown: C-terminal c-myc tag and His6 tag coded by pAX100) EVQLVESGGGLVQAGESLRLSCAASGSTFDFKVMGWYRQPPGKQREGVAAIRLSGNMHYAESVKGRFTISKANAKNTVYLQMNSLRPEDTAVYYCKVNIRGQDYWGQGTQVTVSSGGGGSGGGGSGGGGSGGGGSGGGGSGGGGSGGGGSEVQLVESGGGLVQPGGSLRLSCVASGRIFSSNAMGWFRQAPGKEREFVAAITWRSGGSAYYADSAKGRFTISRDNAKNTVYLQMNSLKPEDTAVYYCAAGGSSWLSFPPDYWGQGTQVTVSS |  | 100% | 7.32 nM | 100% | 2.31 nM | 100% | 0.551 nM | 99.5% | 1.09 nM | 98.5% | 1.85 nM | 100% | 100% | 0.787 nM | 0.827 nM
11 | CXCR20022 (VHH, Bivalent: two VHH joined by a GlySer linker; also called 163D2-35GS-163D2; not shown: C-terminal c-myc tag and His6 tag coded by pAX100) EVQLVESGGGLVQAGGSLRLSCAASGRTFSDYAMGWFRQAPGKEREFVAAITWNGGRVFYTASVKGRFTISRDNAKNTMYLQMNSLKPEDTAVYYCAADKDRRTDYLGHPVAYWGQGTQVTVSSGGGGSGGGGSGGGGSGGGGSGGGGSGGGGSGGGGSEVQLVESGGGLVQAGGSLRLSCAASGRTFSDYAMGWFRQAPGKEREFVAAITWNGGRVFYTASVKGRFTISRDNAKNTMYLQMNSLKPEDTAVYYCAADKDRRTDYLGHPVAYWGQGTQVTVSS |  | 100% | 9.34 nM | 100% | 8.64 nM | 100% | 28.5 nM | 100% | 4.14 nM | 98% | 8.01 nM |  |  |  | 
